B1: MPV487 (antibody, V domains shown)
VH: EVQLLESGGGLVQPGRSLRLSCTASGFTFDDYAMHWVRQLPGKGLEWVSGISWNSDNIGYADSVKGRFTISRDNGKNSLYLQMNSLRAEDTAFYYCAKDVRIDYDLLIGHIDYWGPGTLVTVSS
VL: TQSPVTLSLSPGERATLSCRASQSFGGYCAWYQQKPGQSPRLLIYDASNRATGVPARFSGSGSGTDFTLTISSLEPEDSAVYFCQQRGNWPIFGQGTRLEI
B2: MPV464 (antibody, V domains shown)
VH: QVQLQESGPGLVKPSQTLSLTCTVSGGSVRGGGDYWSWIRRPPGKGLEWIGHIYNSGTTFYNPSLKSRVTISIDTSKNQFSLKLRSVTAADTAVYYCGRVGSRATGLPDWIDPWGQGTLVTVSS
VL: SYELTQPPSVSVSPGQTATITCSGTNLGAKYSCWYQQKPGQSPVLVIFQDNKRASGIPARFSASTSGDTATLTISGTQVMDEADYFCQAWDSRTAVFGGGTTLTVL
B3: MPV454 (antibody, V domains shown)
VH: EVQLVESGGGLVKPGGSLRLSCSTSGFVFSSYAMHWVRQAPGKGLEHVSAISSTGDNTHYADSVKGRFTISRDNSRGRLYLQMTSVRPEDAALYYCVKDLYSGRFYYFLDDWGQGTRIIVSS
VL: DIQVTQSPSSLSASVGDRVTISCRASQNISNYLNWFQQRPGKAPKLLIYVASTLQSGAPSRFSGSGSGTDFTLTITDLQPEDFATYYCQQSYNTPPITFGQGTRLEIK
B4: MPV483 (antibody, V domains shown)
VH: EVQLVQSGAELKKPGSSVKVSCKASGDTFSNYAISWVRQAPGQGLEWMGGIIPIYNTANYAQKFQGRVTLTADESTSTAYMELSSLRSEDTAVYYCARDVRNNWSVLRGARYYYYGMDVWGQGTTVTVSS
VL: DIVMTQTPFSLSASVGDRVTVTCRASQDISNSLAWFQQKPGKAPKSLIYAASSLQSGVPTRFSGGGSGTDFTLTISSLQPEDFATFYCLQYDSFPPTFGGGTKVEI
B5: MPV485 (antibody, V domains shown)
V domain 1: EVQLQEPGPGLVKPSETLSLTCTVSGGSISSTNSFWGWVRQPPGKGLEWIGSIYYSGTTYYNSSLKSRVTISVDTSKNQFSLRLSSVTAADTAVYYCARQGLTSSWYDGSGLDVWG
V domain 2: SYELTQPPSVSVSPGQTASITCSGDKLGNKYACWYQQRPGQSPVLVIYQDTKRPSGIPERFSGSNSGNTATLTISGTQAMDEADYYCQAWDSNTVVFGGGTKLTVL
B6: MPV481 (antibody, V domains shown)
VH: EVQLVQSGGGLVKPGGSLRLSCAASGLPFNNAWMNWVRQAPGKGLEWVGRIKSKIDGGTTEYAAPVKGRFTISRDDSENTLYLQMNSLRTEDTAVYYCTTEYYALLSGNYSDCWGQGTLVTVSS
VL: DIVMTQSPFSLSLSPGERATLSCRASQSIKRAYLGWYQQKPGQAPRLLIYGASNRATGIPDRFSGSGSGTDFTLTISRLEPEDFAVYYCQQYGDSPGGSFGQGTKLEIR
B7: MPV478 (antibody, V domains shown)
VH: EVQLVQSGAEVKKPGASVKVSCNASGYTFTGYYIHWVRQAPGQGLEWMGWINPRSGGTNYAQKFQGRVTLTRDTSITTAYMDVTRLRPDDTAVYYCATTREGIVLMPRGRGDDALDTWGQGTTVIVSS
VL: DIVMTQSPVSLTVSLGERATINCKSSQSVLSTSNNENYLAWYQQKPGQPPNLLIYWASTRESGVPDRFSGSGSGTDFTLTISSLQAEDVAVYYCQQYFATPITFGPGTKVDVK
B8: MPV491 (antibody, V domains shown)
VH: QVQLQESGPGLVKSSQTLSLTCTVSGGSISSVTSHWTWIRQHPGKGLEWIGYIFSSGTTYYSPSLRSRLTMSVDTSKNQFSLQLSSVTAADTAMYYCARGIYCGDSCYKGTDYWGRGTLVTVSS
VL: IRLMTQTPVTLPVTPGEPASISCRSSQSLLHSNGYNYLDWYLQKPGQSPQLLIYRGSTRASGVPDRFSGSGSGTEFTLKISRVEAEDVGVYYCMQGLQTPYTFGQGTKLESR
B9: MPV86 (antibody, V domains shown)
VH: QVQLVQSGAEVKKPGSSVKVSCKASGDTFNDVALSWVRQAPGQGLEWLGGIIPFFGTANYAQRFQDRVTITADASTSTAYLELGGLRSEDTAVYYCARGWSCRNITCFMMGYYFYIMDVWGQGTLVTVSS
VL: LSLSPGERATLSCRASQSVGNFLAWYQQKPGQTPRLLIQDASNRATGIPARFSGTGSGTDFTLTISSLEPEDFAVYYCQQRSNWPPTFGPGTKVDIK
B10: MPV488 (antibody, V domains shown)
VH: EVQLVQSGFEVKKPGASVKVSCKASGYNFNNYGISWVRQAPGQGLEWMGWISAYTGNTNEAQKFQGRVSMTTDTSTSTAYMEVRSLRSDDTAVYYCARDIGSSMFYSYFYGMDVWGQGTTVIVSS
VL: SLSVSLGERATINCKSSESVLYNSNNENYLDWYQQKPGQPPKLLIYWASTRASGVPDRFSGSASGTDFTLTISSLQAEDVAVYYCQQYYSTPRTFGQGTKVEIK
B11: MPV489 (antibody, V domains shown)
VH: EVQLLESGGGLVQPGGSLRLSCAASKFTFNNYEMNWLRQAPGKGLEWVSSISSSGDTIHNADSVKGRFIISRDNAKNSLHLQMNGLRAEDTAVYYCARAGSGWAYDAFDIWGLGTMVTVSS
VL: LSASVGDRVTITCRASQSISSFLNWYQQKPGKAPKLLMYAASSLPVGVPSRFSGSGSGPEYTLTISNLQPEDFATYYCQQGYSSPPTFGGGTRLEVK
B12: MPV477 (antibody, V domains shown)
VH: EVQLVQSGAEVKKPGASVEVSCKTSGYTFTDYYLHWVRQAPGQGLEWMGWINPRSGGTKYGQKFQGRVTMTRDTSISTAYMDLRGLRSDDTAVYYCARAPLLTVYAVAHRSGENRFDPWGQGTVTVSS
VL: QPPSLSGAPGQTVTISCTGSGSNIGAGYDVNWYQCLPGTAPKLLMFDNSNRPSGVPDRFSGSRSGASASLAITGLQAEDEADYYCQSYDSGLSGWVFGGGTKLTVL
B13: MPV486 (antibody, V domains shown)
VH: EVQLVESGGHLVQSGGSLRLSCAASGFTFSNYILNWVRQAPGKGLEWISYITGGSSAIYYADSVKGRFTISRDDAKNSLYLQMNNLRAEDTAVYYCARSHGYDSSGYYYYFAMDVWGQGTTVTVSS
VL: QSVLTQPPSASGTPGQRVTISCSGSNSNIESNTVNWYQQIPGTAPKLLIYSDNRRPSGVPDRFSGSKSGTSASLAISGLQSEDEADYYCAAWDDSLIGYVFGTGTKVTV
B14: MPV456 (antibody, V domains shown)
VH: QVQLQESGPGVVKPSGTLSLTCGVSGGSISSSYWWSWVRQPPGKGLEWIGEIYHSGSTNYNPSLKRRVTISVDKSKNQFSLKVTSVTAADTAVYYCARGPIQYYDILTEERVGYCDYWGQGTLVTVSS
VL: TLSASVGDRVTITCRASQSISSWLAWFQQKPGKAPKLLIYKTSSLESGVPSRFSGSGSGTEFTLTISSLQPDDFATYYCQEYNSYSRTFGQGTKVEIK
B15: MPV467 (antibody, V domains shown)
VH: EVQLVESGGGVVRPGTSLRVSCAAFDFNFRDYGMHWVRQAPGKGLEWVAGIWYDGSNKDYADSVKGRFTISRDNSQNTLYLQMNSLRVEDTAVYYCARDPRTHREGALSHFDSWGQGTLVTVSS
VL: PNELTQDPAVSVALGQTVRITCQGDSLRNYFAGWYQQKPGQAPLLVLYGENIRPSGIPDRFSGSSSGNTVSLTITGAQAEDEADYYCNSRDNSGNHWVFGGGTRLTVL
B16: MPV482 (antibody, V domains shown)
VH: EVQLVQSGGGVVQPGRSLRLSCAASGFTFSSFAMHWVRQAPGKGLEWVALISDDGNNKYHADSVKGRFTISRDSSKNTLYLQMNSLRGEDTAVYYCARDGSVVGAAAHCDHWGQGTLVTVSS
VL: SYELTQPPSVSVSPGQTARITCSGDALPNQCAYWYQQKPGLAPVLLIYKDKERPSGIPERFSGSISGTTVTLTISGVQAEDEADYYCQSSDSSSTVVFGGGTKLTVL
B17: MPV414 (antibody, V domains shown)
VH: QVQLVQSGPEVKKPGSSVMVSCKTSGGNFNNFAISWVRQAPGQGLEWMGGIVPIFGTANYAQKSQDRVTITADPSSSTAYLQLSSLTSDDTAIYYCARDLGRSSNYYYYSVFESWGQGTLVTVSS
VL: DIVMTQSPATLSLSPGERATLSCRASQSVGDKLAWYQQKPGQAPRLLIYGASTRATDIPARFSGSGSGTEFTLTVSSLQPEDFAVYYCQQYENWPPITFGQGTRLEIK

target: T1, hMPV F protein of hMPV CAN/97-83 (genotype A) (human metapneumovirus, UniProt Q6WB98 19-539); assay: cell-based or functional assay
T1 sequence (Q6WB98 19-539): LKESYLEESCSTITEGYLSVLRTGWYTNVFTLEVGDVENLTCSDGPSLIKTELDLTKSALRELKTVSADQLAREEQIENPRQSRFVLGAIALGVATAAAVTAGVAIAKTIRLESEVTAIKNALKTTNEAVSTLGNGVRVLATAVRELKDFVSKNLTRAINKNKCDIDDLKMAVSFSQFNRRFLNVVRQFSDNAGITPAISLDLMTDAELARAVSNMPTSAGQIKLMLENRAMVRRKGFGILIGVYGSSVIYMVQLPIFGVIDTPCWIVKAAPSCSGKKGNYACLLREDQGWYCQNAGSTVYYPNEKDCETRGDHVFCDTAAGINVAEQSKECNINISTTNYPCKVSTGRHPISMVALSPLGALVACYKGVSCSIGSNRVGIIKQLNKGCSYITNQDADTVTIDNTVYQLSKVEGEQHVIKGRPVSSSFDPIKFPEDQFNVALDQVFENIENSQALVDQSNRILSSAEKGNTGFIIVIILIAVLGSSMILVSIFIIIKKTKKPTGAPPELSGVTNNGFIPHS

Binder | IC50, plaque-reduction neutralization of hMPV CAN/97-83 [µg/mL]
B1 | 0.003
B2 | 0.14
B3 | 0.002
B4 | 0.032
B5 | 0.091
B6 | 0.096
B7 | 0.21
B8 | 5.7
B9 | 0.057
B10 | 0.018
B11 | 3.6
B12 | 0.054
B13 | 0.51
B14 | 0.45
B15 | 0.005
B16 | 0.014
B17 | 0.044

target: T2, hMPV F protein of hMPV TN/93-32 (genotype B) (human metapneumovirus); assay: cell-based or functional assay

Binder | IC50, plaque-reduction neutralization of hMPV TN/93-32 [µg/mL]
B1 | 0.012
B2 | 0.4
B3 | 0.025
B4 | 0.11
B5 | 2.6
B6 | 0.26
B7 | 0.068
B8 | 1.9
B9 | 1.8
B10 | 2.4
B11 | 2.3
B12 | 2.9
B13 | 0.062
B14 | 0.81
B15 | 0.0006
B16 | 0.047
B17 | 0.59

target: T1, hMPV F protein of hMPV CAN/97-83 …; assay: cell-based or functional assay; remark: another data set of the same source

Binder | neutralizing activity, plaque-reduction assay [ng/mL] | fold lower neutralization IC50 than against hMPV TN/93-32 [fold]
B1 | < 20 | 
B3 | < 20 | 
B5 |  | ≥ 20
B9 |  | ≥ 20
B10 | < 20 | ≥ 20
B12 |  | ≥ 20
B15 | < 20 | 
B16 | < 20 | 

target: T2, hMPV F protein of hMPV TN/93-32 …; assay: cell-based or functional assay; remark: another data set of the same source

Binder | neutralizing activity, plaque-reduction assay [ng/mL]
B15 | < 1

Reference: US20250188153A1 (UNIVERSITY OF GEORGIA RESEARCH FOUNDATION, published 2025)
